Experiment in all cases: SPR, antibody captured, C2 as analyte;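 also: biacore at 37 °C, anti-C2 mAbs held by immobilised goat anti-human IgG, C2 alanine or serine mutants injected, double-referenced sensorgrams fitted to a 1:1 kinetic or steady-state model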
(In general: Surface plasmon resonance follows binding to a sensor surface in real time, without labels.)

For experiment [1], the target named is T1, human C2 A326S (human, UniProt P06681 21-752).
T1 sequence: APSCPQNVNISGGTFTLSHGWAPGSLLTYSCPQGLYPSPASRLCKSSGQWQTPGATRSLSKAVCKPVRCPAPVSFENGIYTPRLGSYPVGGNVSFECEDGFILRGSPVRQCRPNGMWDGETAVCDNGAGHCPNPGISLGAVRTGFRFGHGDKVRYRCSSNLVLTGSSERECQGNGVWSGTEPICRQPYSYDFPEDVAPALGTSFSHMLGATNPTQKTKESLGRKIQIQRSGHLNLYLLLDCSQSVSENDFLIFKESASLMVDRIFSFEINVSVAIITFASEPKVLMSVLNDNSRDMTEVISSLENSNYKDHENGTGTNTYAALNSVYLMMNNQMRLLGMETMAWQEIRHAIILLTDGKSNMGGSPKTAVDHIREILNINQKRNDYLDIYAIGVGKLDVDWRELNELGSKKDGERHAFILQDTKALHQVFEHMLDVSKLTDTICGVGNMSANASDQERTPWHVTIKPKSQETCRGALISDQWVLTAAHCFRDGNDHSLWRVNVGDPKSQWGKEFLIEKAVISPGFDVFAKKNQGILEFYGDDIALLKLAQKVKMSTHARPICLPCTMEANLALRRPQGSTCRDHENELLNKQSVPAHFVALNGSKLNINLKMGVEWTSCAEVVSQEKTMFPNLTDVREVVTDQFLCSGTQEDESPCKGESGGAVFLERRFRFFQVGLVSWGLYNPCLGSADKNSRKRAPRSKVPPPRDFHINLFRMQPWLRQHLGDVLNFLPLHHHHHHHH

Experiment [2] deals with T2, human complement C2 (wild type) (human, UniProt P06681 21-752).
T2 construct: Full-length human C2 (NP_000054) with C-terminal 8x His tag, secreted from Expi293F cells and purified from the supernatant; also called WT; huC2
T2 sequence: T1 sequence with S306A

The target of experiment [3] is T3, human C2 S469A (human, UniProt P06681 21-752).
T3 sequence: T1 sequence with S306A, S449A

What is called Kd is the equilibrium constant for the complex coming apart. A low value points to tighter binding.

Where a chain is given by its changes, count along the chain named.

B1: RF16-242 (antibody, human IgG4 S228P, lambda, V domains shown)
VH: EVQLLQSGAEVKKPGESLKISCKGSGYSFTSYWIGWVRQMPGKGLEWMGIIYPGDSDTRYSPSFQGQVTISADKSISTAYLQWSSLKASDTAMYYCARRGHYGDYFDYWGQGTLVTVSS
VL: SYELTQPPSVSVSPGQTARITCSGDALPKKYAYWYHQKSGQAPVLVIYEDRRRPSEIPERFSGSSSGTMATLTITGAQVEDEGVYFCYSRDRAGNQRVFGGGTQLTVLG
notes: pH-dependent anti-C2 antibody from a phage display library
For B1, the Kd worked out at 9.9 nM in experiment [1], 7 nM in experiment [2] and 21.4 nM in experiment [3].

The values are drawn from US20220332804A1 (CSL INNOVATION, published 2022).
